Square brackets hold non-standard residues; d marks the D form.

For this test, the target named is αvβ3 integrin on TNF-α-treated bovine aortic endothelial cells (BAEC) (bovine) (UniProt P80746). The test can be described thus: attachment under flow in a microfluidic device coated with TNF-α-treated BAEC cells; reference RGD-targeted nanospheres.

B1: RGD-NC nanoparticle (integrin-targeted nanochain of four iron oxide nanospheres carrying c(RGDfC) peptides on PEG) (peptide)
peptide: cyclo(RGD[dF]C)
modifications: not fully specified (residue 5); printed as cyclo (Arg-Gly-Asp-D-Phe-Cys); also: nanochain also tagged with VivoTag 680
B1 came in with a fold higher attachment compared to RGD-targeted nanospheres (after 5 min) of 9.5 fold and a fold higher attachment compared to RGD-targeted nanospheres (after 20 min) of 2.9 fold.

(Values after patent US20190307687A1.)
